Sequences and labels used below:
B1: SecYEG with SecY142C labelled with Atto647N (complex)
chain 1: MAKQPGLDFQSAKGGLGELKRRLLFVIGALIVFRIGSFIPIPGIDAAVLAKLLEQQRGTIIEMFNMFSGGALSRASIFALGIMPYISASIIIQLLTVVHPTLAEIKKEGESGRRKISQYTRYGTLVLAIFQSIGIATGLPNCPGMQGLVINPGFAFYFTAVVSLVTGTMFLMWLGEQITERGIGNGISIIIFAGIVAGLPPAIAHTIEQARQGDLHFLVLLLVAVLVFAVTFFVVFVERGQRRIVVNYAKRQQGRRVYAAQSTHLPLKVNMAGVIPAIFASSIILFPATIASWFGGGTGWNWLTTISLYLQPGQPLYVLLYASAIIFFSFFYTALVFNPRETADNLKKSGAFVPGIRPGEQTAKYIDKVMTRLTLVGALYITFISLIPEFMRDAMKVPFYFGGTSLLIVVVVIMDFMAQVQTLMMSSQYESALKKANLKGYGR
chain 2: MSANTEAQGSGRGLEAMKWVVVVALLLVAIVGNYLYRDIMLPLRALAVVILIAAAGGVALLTTKGKATVAFAREARTEVRKVIWPTRQETLHTTLIVAAVTAVMSLILWGLDGILVRLVSFITGLRF
chain 3: MYEALLVVFLIVAIGLVGLIMLQQGKGADMGASFGAGASATLFGSSGSGNFMTRMTALLATLFFIISLVLGNINSNKTNKGSEWENLSAPAKTEQTQPAAPAKPTSDIPN
modifications: Atto647N (maleimide dye) on cysteine 142; labelling efficiency 24%
B2: YidC23C labelled with Atto520 (YidC W23C, single cysteine) (natural protein)
chain: MDSQRNLLVIALLFVSFMIWQACEQDKNPQPQAQQTTQTTTTAAGSAADQGVPASGQGKLISVKTDVLDLTINTRGGDVEQALLPAYPKELNSTQPFQLLETSPQFIYQAQSGLTGRDGPDNPANGPRPLYNVEKDAYVLAEGQNELQVPMTYTDAAGNTFTKTFVLKRGDYAVNVNYNVQNAGEKPLEISSFGQLKQSITLPPHLDTGSSNFALHTFRGAAYSTPDEKYEKYKFDTIADNENLNISSKGGWVAMLQQYFATAWIPHNDGTNNFYTANLGNGIAAIGYKSQPVLVQPGQTGAMNSTLWVGPEIQDKMAAVAPHLDLTVDYGWLWFISQPLFKLLKWIHSFVGNWGFSIIIITFIVRGIMYPLTKAQYTSMAKMRMLQPKIQAMRERLGDDKQRISQEMMALYKAEKVNPLGGSFPLLIQMPIFLALYYMLMGSVELRQAPFALWIHDLSAQDPYYILPILMGVTMFFIQKMSPTTVTDPMQQKIMTFMPVIFTVFFLWFPSGLVLYYIVSNLVTIIQQQLIYRGLEKRGLHSREKKKS
modifications: Atto520 (maleimide dye) on cysteine 23; labelling efficiency 18%

The target of assay [1] is B2. Nature of the assay: FRET or BRET; ensemble FRET in detergent: 0.55 µM YidC-Atto520 (donor) in 0.03% dodecyl maltoside titrated with increasing SecYEG-Atto647N (acceptor); excitation 516 nm, donor at 538 nm, acceptor at 669 nm; buffer controls for dilution; Kd by Lineweaver-Burk linearisation. The settings on record: both partners purified. On the technique in general: BRET reads energy transfer from a luciferase to a nearby fluorophore.

Assay [2] concerns the target B1. Described as above. The settings on record: both partners purified.

The source of these data is publication PMC7886851 (Scientific Reports, 2021).

As usually defined, the stoichiometry N is the number of molecules, sites or subunits per partner or assembly. One may read the Kd as the constant that tells how readily two partners part at equilibrium.

As for B1, the “stoichiometry N” value in assay [1] stood at 1.
B2: in assay [2], the Kd worked out at 27 ± 10 nM.
